This note sets out measurements from patent US20140235820A1, “METHODS AND COMPOSITIONS FOR MODULATING THE Wnt PATHWAY” (Genentech, Inc., priority 2010, published 2014).

Positions of bridges follow the written chain, without caps; N, C: chain ends.

The target of test [1] is T1, human LRP6 construct E1 (amino acids A20-D325) (human, UniProt O75581 20-325).
T1 construct: range 20-325; In the Fab crystal E1 arose from E1E2 degraded beyond Arg 335; residues Ala20 to Lys324 were traced; also called LRP6 E1; E1 domain
T1 sequence (looked up): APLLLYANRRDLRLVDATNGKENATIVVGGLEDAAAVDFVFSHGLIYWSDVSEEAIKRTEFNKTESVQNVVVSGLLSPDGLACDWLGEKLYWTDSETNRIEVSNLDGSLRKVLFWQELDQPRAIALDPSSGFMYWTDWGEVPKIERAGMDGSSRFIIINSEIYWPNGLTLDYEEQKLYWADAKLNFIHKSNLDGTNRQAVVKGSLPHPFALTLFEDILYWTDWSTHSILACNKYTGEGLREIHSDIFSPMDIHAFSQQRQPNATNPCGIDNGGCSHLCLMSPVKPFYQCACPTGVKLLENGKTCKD
Put plainly: legend of FIG. 22. The method, then: (§1) Binding kinetics were measured by biolayer interferometry using an Octet Red instrument (ForteBio) as previously described (11). Streptavidin (SA) biosensors were loaded with biotinylated hLRP6 in 50 mMTris, pH 8, 300 mM NaCl, 5% (v/v) glycerol, and 0.05% (w/v) Triton X-100. The loaded biosensors were washed in the same buffer before carrying out association and dissociation measurements for the indicated times. The Kd of each interaction was determined using steady state-analysis through the Octet Red software v6.3. Each reported value represents an average of three or more experiments at different concentrations, with a fitted experimental curve for which the square of the correlation coefficient (R²) is above 0.96.

The target in test [2] is T2, human LRP6 construct E1E2 (amino acids A20-E631) (human, UniProt O75581 20-631, biotinylated for biolayer interferometry).
T2 construct: range 20-631; also called LRP6 E1E2
T2 sequence (looked up): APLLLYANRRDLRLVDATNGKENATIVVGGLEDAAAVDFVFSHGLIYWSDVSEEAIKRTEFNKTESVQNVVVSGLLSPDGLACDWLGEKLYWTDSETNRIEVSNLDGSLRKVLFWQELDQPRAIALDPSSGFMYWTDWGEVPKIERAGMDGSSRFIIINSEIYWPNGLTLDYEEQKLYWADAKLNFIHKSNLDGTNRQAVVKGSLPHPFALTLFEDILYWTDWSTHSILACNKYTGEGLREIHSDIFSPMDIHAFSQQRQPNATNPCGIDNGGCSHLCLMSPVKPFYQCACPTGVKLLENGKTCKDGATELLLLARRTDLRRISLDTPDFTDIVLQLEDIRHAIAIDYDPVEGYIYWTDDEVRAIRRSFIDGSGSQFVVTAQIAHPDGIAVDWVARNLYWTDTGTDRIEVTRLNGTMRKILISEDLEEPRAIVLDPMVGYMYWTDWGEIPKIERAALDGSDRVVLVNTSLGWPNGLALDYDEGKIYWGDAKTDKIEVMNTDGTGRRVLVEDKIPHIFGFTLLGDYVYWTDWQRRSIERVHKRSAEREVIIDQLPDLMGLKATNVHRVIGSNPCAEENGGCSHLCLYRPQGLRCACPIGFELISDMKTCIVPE
Put plainly: competition phage ELISA. The protocol: Peptide affinities were also determined by competition with phage displaying a binding peptide (competition phage ELISA). Serial dilutions of test peptide were mixed with an appropriate (non-saturating) concentration of phage before exposing the mixture to target and allowing it to reach equilibrium. After washing to remove unbound material, bound phage were detected by incubation with anti-M13 antibody-horseradish peroxidase (HRP) conjugate and exposure to a suitable colorometric HRP substrate.
FIG. 7B. These peptides include the “NXI” motif described above. Affinities of the peptides for LRP6 E1E2 were determined by competition phage ELISA (41). […] To understand the detailed interactions of the peptides with LRP6, we determined high-resolution co-crystal structures of the peptides bound to the LRP6 E1 β-propeller.
(ELISA stands for enzyme-linked immunosorbent assay.)

Another test deals with LRP6. In words: Competition binding between Dkk1 and other Wnt pathway inhibitors (preloaded Dkk1). As to conditions: Dkk1 100 nM preloaded, test ligand 100 nM. Also on record: species or system human. The protocol:
FIG. 8. Competition binding between Dkk1 and other Wnt pathway inhibitors. The indicated LRP6 construct was preloaded onto biosensor tips. Dkk1 (100 nM) (or buffer control) and the test ligand (100 nM) were loaded sequentially onto the LRP6 tips. (A) Dkk2 competition with Dkk1. (B) Sclerostin competition with Dkk1. Percent binding in the presence of Dkk1 is shown relative to buffer control.
as §1, with “(R^2)” for “(R²)”
To assess whether Dkk1, Dkk2, and sclerostin might bind to the same site on LRP6 E1, Dkk2 or sclerostin binding was measured in the presence of preloaded Dkk1 (100 nM). […]

For the next test, the target named is T3, LRP6 E4 (Homo sapiens, UniProt O75581).
T3 construct: construct E4-T933-Q1253; made in house; host or cells: Tni insect cells (baculovirus, secreted)
T3 sequence (O75581 933-1253): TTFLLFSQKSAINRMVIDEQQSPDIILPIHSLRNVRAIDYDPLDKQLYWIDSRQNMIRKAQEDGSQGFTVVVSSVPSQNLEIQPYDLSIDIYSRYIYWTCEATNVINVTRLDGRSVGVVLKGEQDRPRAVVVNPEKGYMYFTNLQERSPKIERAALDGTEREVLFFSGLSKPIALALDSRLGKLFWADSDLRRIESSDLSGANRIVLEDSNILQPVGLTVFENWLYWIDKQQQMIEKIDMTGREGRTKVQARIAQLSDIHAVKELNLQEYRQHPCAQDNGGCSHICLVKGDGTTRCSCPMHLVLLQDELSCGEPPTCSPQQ
In words: Biolayer interferometry binding to LRP6 E4. The protocol:
as §1, with “(R^2)” for “(R²)”
(§2) The interaction of the different Dkks and sclerostin with various domains of LRP6 was measured using a biolayer interferometry assay (11). Purified receptors contained individual β-propeller-EGF-like units (E1, E2, or E4), two β-propellers (E1E2 or E3E4), or four β-propellers (E1E4))—as follows:
(§3) Human LRP6: construct E1E4-amino acids A20-Q1253 of LPR6; construct E1E2-amino acids A20-E631 of LPR6; construct E3E4 amino acids E631-Q1253 of LPR6; construct E1-amino acids A20-D325 of LPR6; construct E2-amino acids […]-E631 of LPR6; construct E4-T933-Q1253. The individual LRP6 β-propeller E3 could not be expressed.
For orientation: Biolayer interferometry detects binding as a change in optical thickness at a sensor tip.

A further test deals with T4, LRP6 E3E4 (Homo sapiens, UniProt O75581).
T4 construct: construct E3E4 amino acids E631-Q1253 of LPR6; made in house; host or cells: Tni insect cells (baculovirus, secreted)
T4 sequence (O75581 631-1253): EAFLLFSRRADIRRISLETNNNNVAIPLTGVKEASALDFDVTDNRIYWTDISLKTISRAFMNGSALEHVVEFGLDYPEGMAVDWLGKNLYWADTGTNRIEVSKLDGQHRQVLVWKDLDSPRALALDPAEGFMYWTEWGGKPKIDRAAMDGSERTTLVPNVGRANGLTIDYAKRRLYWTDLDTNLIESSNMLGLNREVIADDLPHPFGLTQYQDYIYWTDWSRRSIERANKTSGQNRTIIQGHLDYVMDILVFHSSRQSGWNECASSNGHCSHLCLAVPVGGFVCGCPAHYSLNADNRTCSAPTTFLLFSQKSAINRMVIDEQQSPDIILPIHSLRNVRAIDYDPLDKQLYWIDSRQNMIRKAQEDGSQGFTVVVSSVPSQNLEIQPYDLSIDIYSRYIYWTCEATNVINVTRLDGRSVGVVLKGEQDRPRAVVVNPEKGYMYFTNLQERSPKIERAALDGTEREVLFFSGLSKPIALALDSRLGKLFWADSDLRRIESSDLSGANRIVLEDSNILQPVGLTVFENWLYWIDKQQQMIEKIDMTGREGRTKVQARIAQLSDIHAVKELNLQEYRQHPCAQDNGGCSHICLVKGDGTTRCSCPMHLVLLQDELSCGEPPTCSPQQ
Put plainly: Biolayer interferometry binding to LRP6 E3E4. To be noted: steady state, read-out: affinity for LRP6 E3E4. The protocol:
as §1, with “(R^2)” for “(R²)”
as §2, §3

The target in the next test is T5, LRP6 E1E2 (Homo sapiens, UniProt O75581).
T5 construct: construct E1E2-amino acids A20-E631 of LPR6; made in house; host or cells: Tni insect cells (baculovirus, secreted)
T5 sequence (O75581 20-631): T2 sequence (looked up)
In words: Biolayer interferometry binding to LRP6 E1E2. As to conditions: steady state, read-out: affinity for LRP6 E1E2. The protocol:
as §1, with “(R^2)” for “(R²)”
as §2, §3

A further test deals with T6, LRP6 E1 (Homo sapiens, UniProt O75581).
T6 construct: construct E1-amino acids A20-D325 of LPR6; made in house; host or cells: Tni insect cells (baculovirus, secreted)
T6 sequence (O75581 20-325): T1 sequence (looked up)
Put plainly: Biolayer interferometry binding to LRP6 E1. The protocol: as §1, with “(R^2)” for “(R²)”
as §2, §3

A further test concerns the target T7, LRP6 E2 (Homo sapiens, UniProt O75581).
T7 construct: construct E2-amino acids D235-E631 of LPR6; made in house; host or cells: Tni insect cells (baculovirus, secreted)
T7 sequence (O75581 325-631 limits assumed): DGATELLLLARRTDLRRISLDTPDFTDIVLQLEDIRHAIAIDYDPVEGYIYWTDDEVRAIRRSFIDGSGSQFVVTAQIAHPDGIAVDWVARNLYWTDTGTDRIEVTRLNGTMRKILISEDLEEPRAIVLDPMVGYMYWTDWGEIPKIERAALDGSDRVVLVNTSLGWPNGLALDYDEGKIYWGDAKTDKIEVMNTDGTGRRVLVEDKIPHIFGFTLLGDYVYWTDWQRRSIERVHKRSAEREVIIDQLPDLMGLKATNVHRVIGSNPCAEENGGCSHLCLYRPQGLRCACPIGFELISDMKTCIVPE
In words: Biolayer interferometry binding to LRP6 E2. The protocol: as §1, with “(R^2)” for “(R²)”
as §2, §3

For Ac-CNSIKFCG-NH2 (disulfide 1-7 (inferred), also called Peptide B) [Ac-CNSIKFCG-am (disulfide)], the binding result in test [1] is “binds”.
Usually IC50 stands for the concentration that inhibits the measured activity by half. A high value points to a need for much substance. Molecule Ac-NSNAIKN-NH2 (also called Dkk1 peptide) [Dkk1 7-mer peptide Ac-NSNAIKN-am] returned an IC50 in test [2] of 4000 nM.

B1: Dkk2: Dickkopf 2, carrier-free protein from R&D Systems (protein, UniProt Q9UBU2 34-259, looked up)
Dickkopf-related protein 2: KLNSIKSSLGGETPGQAANRSAGMYQGLAFGGSKKGKNLGQAYPCSSDKECEVGRYCHSPHQGSSACMVCRRKKKRCHRDGMCCPSTRCNNGICIPVTESILTPHIPALDGTRHRDRNHGHYSNHDLGWQNLGRPHTKMSHIKGHEGDPCLRSSDCIEGFCCARHFWTKICKPVLHQGEVCTKQRKKGSHGLEIFQRCDCAKGLSCKVWKDATYSSKARLHVCQKI
On to B1, for which the “binding to LRP6 in the presence of preloaded Dkk1” value in the test on LRP6 is given as “inhibited only slightly”. For the same molecule, the “binding to LRP6 E4 (in words)” value in the test with LRP6 E4 was “undetectable”. Also, the Kd in the test with LRP6 E3E4 is 38 nM; in the test with LRP6 E1E2, 53 nM. Further, the “binding to LRP6 E1 (in words)” value with LRP6 E1 was “bind with high affinity”. Moreover, the “binding to LRP6 E2 (in words)” value with LRP6 E2 is reported as “Partial binding”.
